Experimental data published in a protein production outcome set (Wang et al. 2014).

Assay: label from the status in PepcDB records

| Sequence | protein production |
| --- | --- |
| MSLTKIDAYAHILPAKYYQKMLSVEPNIPNMFPFIKIKTLMDLDERLTKWPDQNTKQVISLANISPEDFTDSKTSAELCQSANEELSNLVDQHPGKFAGAVAILPMNNIESACKVISSIKDDENLVGAQIFTRHLGKSIADKEFRPVLAQAAKLHVPLWMHPVFDARKPDNNLVFSWEYELSQAMLQLVQSDLFQDYPNLKILVHHAGAMVPFFSGRIDHILDEKHAQDFKKFYVDTAILGNTPALQLAIDYYGIDHVLFGTDAPFAVMPSGADQIITQAINDLTISDKDKQKIFHDNYYSLIKEGHHHHHH | not failed |
| MEHTWMMKYFAEFFGTIILVVFGNGAVANSVLTKTGGNSHDGQANGGWLLIAFSFGFGVMLPAMMFGSISGNHLNPAVTLAQACAGAFPWNQVLPYILVQMLGAIVGQLLLVAVYWPFIAKTSSDDAVFASFSTGDIADSKLNGFITEFVGTAILLFVAVGLYRGMFFKQSEDIANIGVGFLITALVMAVGGPTGPALNPARDLGPRIVYALCPLPHKGSAHWDYGWIPVVAPIAGGICGALLYKLAFGL | failed |
| MYHILIRKGLLNMKTVLIVGANGRVSIEATKIFLENSRFNVDLFLRNAHRIPDYASNRIKVYEGDAKNIEDLESALNNVDVVFASLSGSLDKQAETIVKAMDNKNVKRLIFVAAPGIYDELPEPFNQWNKEQFGEKLNRYRKASDIIENSDLDYTIIRPGWLTDKNENVYEITAKNETFKGTEVSRKSVASLAVQIAKNPELHSKENIGVNKPNTEGNKPAWFN | failed |
| MGDSHDVCRQLLPRAIFGINGKVENGVRQHPVTGSIIFALGNKIGIADYKKNTQEFVAGHTNTISCLDLSKSGKYMASGQINHMGFRGYVIIWNYDQRKEIARHDLHKVSVQAICFTAQDRCVVSIGGVDDGSVIVFDMEAFSPICQTPASRAISGNALTVRPLHNNPYFFVTAGDRHLRLWSILREEKKLYVQDVLMASKTRVFYCARINKTDEFAYLGTGTGDIVKIVLNCCDRDHVSKQGSTSCILGAFGTHNPRKPTGRDCNRYVNGVRALYVLEGGRLLIGAGNGDIELVEERTDVPLINFRDYPGPTWPYLRTLKKTHVSGRISSFVRSKTDMFYICTDTNEIYGLNIKTWVLKLLRTCHTKSVYCITFPKNYSGVFATSGKECIRIWSSGRKQELLRIMVYNFNCACVRFTHDGTSIVSVWNDGIIRAFTPITGRLIYAIPNAHNKGCSALAVASSGRLIVTGGIEGQVRVWKIDPYRQDLVGVLKDHSGPITSLDINYLDTEVISACTDGSCVIWDIKRMTRKQVVTANTQFMSASYFPTGVQVITCGSDGRIIYWMVYNGALIRELTASKKSSVNCLAINETGDYFITVGSDLQVKLWDYNSGAVVGIGSEHASSVISCAYSPCMTMFVTGSTDGSLIIWDVPRDFWGRPNPPDVTKYSLPKTSSKTRMSDVPSRVNSGTNLKTTKGENIDGLLKATPKDDLCCVECPPCAKKDTKGVDPYAECGIVPDVRKC | failed |
| MSLKRRQTNIIGVYLADYGGSFYGELLEGIKKGLALFDYEMIVCSGKKSHLFIPEKMVDGAIILDWTFPTKEIEKFAERGHSIVVLDRTTEHRNIRQVLLDNRGGATQAIEQFVNVGSKKVLLLSGPEKGYDSQERLAVSTRELTRFGIPYEIIQGDFTEPSGYAAAKKILSQPQTEPVDVFAFNDEMAIGVYKYVAETNYQMGKDIRIIGFDNSELGAFVQPRLATIAYSKHRWGMVAAEKIIHLMRGEAAESEHIYTRFIEGESFPSEGHHHHHH | not failed |
| MLIINKLNHAQKQLEKLNFIPQQADKVDFLASSSEFKARILQLINTAKSRIYLTALYFEQDEAGQQILAALYQAKLANPALDIQILVDWHRAQRGRIGEKTTSSNADWYANMKQQYNLPPEQEIAVWGVPINGREIFGVLHLKGFIFDDTILYSGASINNVYLQQFDRYRYDRYHTLENKVLADSLVTFLQQHILTDHAVNRLDNMQRPVTANIRPAIKAFRKQLTKQQYQFAEQPESNGLMLSPIAGLGRKNQLNKTIEALFYKTQNKLTICTPYFNFPRSLITRIKWLLENGKQVEIIAGDKKANDFYTPPDKKFTMAAALPYLYEKNLRAFAKRFDSYIQNKLLTIRLWKDGENTYHLKGLWVDNRYILLTGNNLNPRAWGLDAENGILLDDPKAELAEKAALELTQIRTFTQELSHYSDLETIKDYPLEVQKLLKKFGRVKLDKIIKMLLLEHHHHHH | failed |
| MDLSSKPQQQLLNSLPIAGELTVTGEMGVCYKECLKNHAANLGGHALDGCGEFMPSPTATSTDPSSLRCAACGCHRNFHRRDPSENLNFLTAPPISSPSGTESPPSRHVSSPVPCSYYTSAPPHHVILSLSSGFPGPSDQDPTVVRSENSSRGAMRKRTRTKFTPEQKIKMRAFAEKAGWKINGCDEKSVREFCNEVGIERGVLKVWMHNNKYSLLNGKIREIEHGLCLNTHSNDGDGSSSS | not failed |
| MNIGVIILAAGEGKRFGGDKLLAKIDNTPIIMRTIRIYGDLEKIIIVGKYVNEMLPLLMDQIVIYNPFWNEGISTSLKLGLRFFKDYDAVLVALGDMPFVTKEDVNKIINTFKPNCKAVIPTHKGERGNPVLISKSLFNEIEKLRGDVGARVILNKIKIEELCFIECSEGVLIDIDKKEDLMRLRDFHP | failed |
| MMDSIAGPIQVLSRQFPNAQQGKGAALNHAFQIVLTDAEKGHYSWDQVLVGVVDADGFFSENIVNELTAVFTDTTVCAAQTRIKMKDVTNFMFIAQDVEFFTINNFIQKARRATKTIGLGGNGQFFRLSMITEHLGYQPWGNALLDDYELTIKLMLKELSIAYIDEAFMAQEALRDVKRFIRQRSRWVQGNLDCLAYLPRVIKSKSLTLRQKCGIYYFLAQPFINLVAGMLVFVLTGLQLQHLYRLGFSLSLVISFVLAVSISLVFGIFFTINYYRELKNFQLKVPAKLGLIILPFTISYMYLILFVSVVMAYYRFIKGNSTWIKTERN | failed |
| MKTRMKITIAFVAVMVLSFTGYNVYKTQKAIQLSDVAMANVEALADGEGTNAGYCYLEDTWSTKRGYKYFCDSKTDKNTIYPCPSSMESGWYDDNKQDRCTK | failed |
| MLSFIAVGLLARLAVARGEVKYGCTKHELRRLSRRGRLLLVVLWPLVAAFLLAIFPNVPSRNIFGDLILIIAAVLPAALLAFLVNAMLERTRFKVVPRRSPKAHSR | failed |
| MNVTLGTGDGADFWVFGFGSLIWKPDIPFEECRDAFITGWRRRFWQHSTDHRGTESYPGRVATLVLAEQPGERCYGRAYRVDNEAAADVLAYLDEREKQGYSRLALPVYDARSAEQITKHALVYIAREDNPHFVRAADERQIPVLCRIIARARGPSGDNATYLFRLKESLDEIGVRDEHVDELVFGVRAELEALASACSESTPHGVAVAPTAASFDAVPASSDDLR | failed |
| MHPALVLAAIALIAIKLDPRFVLGLLVLLTLIYGKKRGFSLKLRNVTEDESYFNAFLFSTILSALSCFSLPKDVVFASIFLISVHNYRKNALWNIAVYTTASLLYFLCYHAVNGVELRLAHTFFISLSGGLTAALVESVDTNADRRLTLLLAISSVFTIFKMYVPSASIYSLAFAFLLSFFVSLLALYAKVADESGLMSATIVGTTLILFADIRFFAVILLFYALGSAITKYKYSVKLERGIAEQAGGARGYANVFGNSLAPLFFAVQFGVSGDAIFAAAFVAAVAAALADTMASEIGKAEEKVYLITNFSRVEPGTSGGISVKGEFAALFGCIVTALLSLLLGIIGFDVLLPVTLSAFAGVHIDSLLGATLEKKGYLTNSAVNFLGTLSAGIICVLLLLPLL | failed |
| MMKLMFASDIHGSLPATERVLELFAQSGAQWLVILGDVLNHGPRNALPEGYAPAKVAERLNEVAHKVIAVRGNCDSEVDQMLLHFPITAPWQQVLLEKQRLFLTHGHLFGPENLPALNQNDVLVYGHTHLPVAEQRGEIFHFNPGSVSIPKGGNPASYGMLDNDVLSVIALNDQSIIAQVAINP | not failed |
